According to PMC12084609, “Structural insights into small-molecule agonist recognition and activation of complement receptor C3aR” (The EMBO Journal, 2025):
Substitutions are numbered along the chain they refer to. Where “and” joins values, the source holds several entries; their conditions need not be identical. Identical values can stand only once.

What was measured:
Format in all cases: cell-based
[1] = target: T1, C3aR I102^3.32A/I421^7.39A (Homo sapiens, UniProt Q16581, I102A/I421A); experiment: GloSensor-based cAMP assay, C3aR double mutant I102A/I421A; conditions: for cAMP response (% Forskolin): single replicates
T1 construct: expressed in transfected cells; host or cells: HEK293T
T1 sequence (Q16581 1-482 I102A/I421A): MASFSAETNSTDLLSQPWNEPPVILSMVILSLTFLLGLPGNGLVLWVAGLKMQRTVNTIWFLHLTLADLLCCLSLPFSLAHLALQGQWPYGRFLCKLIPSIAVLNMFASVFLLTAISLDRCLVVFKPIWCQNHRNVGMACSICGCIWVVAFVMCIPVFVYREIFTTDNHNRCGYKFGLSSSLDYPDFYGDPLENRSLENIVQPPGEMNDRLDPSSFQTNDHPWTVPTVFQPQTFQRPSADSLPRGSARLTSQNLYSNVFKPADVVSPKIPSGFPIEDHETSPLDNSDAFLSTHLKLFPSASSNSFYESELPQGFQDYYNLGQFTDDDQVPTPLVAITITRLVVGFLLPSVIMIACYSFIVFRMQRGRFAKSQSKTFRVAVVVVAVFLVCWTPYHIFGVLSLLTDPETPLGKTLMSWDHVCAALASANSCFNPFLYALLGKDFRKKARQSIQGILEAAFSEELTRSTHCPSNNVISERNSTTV
Experimental: (§1) HEK293T cells were seeded on 6-well plates (NEST) and transfected with pGlosensor™-22F plasmids (Promega) and pcDNA3.1 plasmids encoding C3aR or its mutants an with N-terminal FLAG tag. After 48 h, cells were detached with Accutase solution (Sigma-Aldrich) and washed with PBS, and resuspended in assay buffer (CO2-independent medium with 0.5 mg mL^−1D-luciferin). 100,000–200,000 cells were seeded on 96-well white bottom plates (SPL) and incubated at 37 °C for 45 min followed by 45 min incubation at room temperature. After 90 min of incubation, basal luminescence signals were recorded. In total, 25 μl of test ligand with various concentrations and 1 μM Forskolin (Sigma-Aldrich) were treated to the cells and luminescence signals were measured by Tristar 2 LB 942 multimode reader (Berthold). […] Relative luminescence unit (%) was calculated with the signal of wells treated with vehicle as 0% and the signal of wells treated with 1 μM Forskolin as 100% (DiRaddo et al, [2014]). Nonlinear regression was performed using a three-parameter logistic equation.

C3aR H81^2.63A = target: T2, C3aR H81^2.63A (Homo sapiens, UniProt Q16581, H81A); experiment: GloSensor-based cAMP assay, C3aR mutant H81A; conditions: for cAMP response (% Forskolin): H812.63A, single replicates
T2 construct: expressed in transfected cells; host or cells: HEK293T
T2 sequence (Q16581 1-482 H81A): T1 sequence (Q16581 1-482 I102A/I421A) with H81A, A102I, A421I
Experimental: as §1

C3aR = C3aR (Homo sapiens, UniProt Q16581); experiment: Gi recruitment BRET assay (C3aR-eYFP / Gαi-Rluc8, HEK293T); conditions: for ΔBRET (ligand-vehicle): individual replicates
Experimental: HEK293T cells were seeded on 6-well plates (NEST) and transfected with pcDNA3.1 plasmids encoding C3aR-eYFP, Gαi-Rluc8, Gβ1, and Gγ2 with a ratio of 5:1:1:1. After 48 h, cells were harvested and resuspended with in PBS. Cells were treated with test ligand with various concentrations and seeded on 96-well white bottom plates (SPL). After 3 min incubation at 37 °C, coelenterazine h (Nanolight) was added with a final concentration of 10 μM. Luminescence and fluorescence were measured using a Tristar 2 LB 942 multimode reader (Berthold).

C3aR L82^2.64A = target: T3, C3aR L82^2.64A (Homo sapiens, UniProt Q16581, L82A); experiment: GloSensor-based cAMP assay, C3aR mutant L82A; conditions: for cAMP response (% Forskolin): L822.64A, single replicates
T3 construct: expressed in transfected cells; host or cells: HEK293T
T3 sequence (Q16581 1-482 L82A): T1 sequence (Q16581 1-482 I102A/I421A) with L82A, A102I, A421I
Experimental: as §1

[2] = Dunnett's multiple comparisons test, WT minus mutant

C3aR, sequence (Q16581 whole entry): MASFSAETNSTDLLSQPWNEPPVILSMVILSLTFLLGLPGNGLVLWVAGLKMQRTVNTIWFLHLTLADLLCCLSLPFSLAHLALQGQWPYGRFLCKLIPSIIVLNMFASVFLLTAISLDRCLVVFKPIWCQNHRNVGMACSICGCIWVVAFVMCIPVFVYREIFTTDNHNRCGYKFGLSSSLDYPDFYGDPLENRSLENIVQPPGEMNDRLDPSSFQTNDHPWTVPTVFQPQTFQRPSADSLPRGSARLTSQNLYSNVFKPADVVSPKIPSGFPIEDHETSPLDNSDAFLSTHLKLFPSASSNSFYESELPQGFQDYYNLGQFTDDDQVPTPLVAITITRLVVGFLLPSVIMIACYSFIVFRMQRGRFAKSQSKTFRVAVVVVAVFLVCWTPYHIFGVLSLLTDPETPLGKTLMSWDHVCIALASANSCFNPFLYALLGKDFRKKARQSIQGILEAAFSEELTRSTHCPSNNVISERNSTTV
C3aR, sequence (P63096 2-354 partner limits assumed): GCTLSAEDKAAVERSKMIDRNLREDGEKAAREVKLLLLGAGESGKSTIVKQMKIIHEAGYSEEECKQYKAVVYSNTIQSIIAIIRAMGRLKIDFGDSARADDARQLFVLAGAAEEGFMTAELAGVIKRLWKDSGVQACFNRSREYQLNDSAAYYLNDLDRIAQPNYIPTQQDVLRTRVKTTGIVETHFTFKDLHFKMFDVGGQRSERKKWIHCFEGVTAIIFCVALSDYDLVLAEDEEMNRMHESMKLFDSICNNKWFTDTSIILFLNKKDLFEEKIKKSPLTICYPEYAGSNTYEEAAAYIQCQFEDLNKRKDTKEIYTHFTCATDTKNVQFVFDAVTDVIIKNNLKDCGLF
C3aR, sequence (P62873 2-340 partner limits assumed): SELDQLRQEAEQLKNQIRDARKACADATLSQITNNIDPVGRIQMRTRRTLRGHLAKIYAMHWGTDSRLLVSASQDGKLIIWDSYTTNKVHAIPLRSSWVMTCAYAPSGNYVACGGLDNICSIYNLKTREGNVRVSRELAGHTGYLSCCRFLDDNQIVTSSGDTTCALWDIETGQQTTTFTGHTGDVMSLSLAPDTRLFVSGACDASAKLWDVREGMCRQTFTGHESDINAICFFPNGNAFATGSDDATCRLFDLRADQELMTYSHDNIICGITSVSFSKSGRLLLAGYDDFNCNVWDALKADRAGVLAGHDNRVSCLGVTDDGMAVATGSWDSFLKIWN
C3aR, sequence (P59768 2-68 partner limits assumed): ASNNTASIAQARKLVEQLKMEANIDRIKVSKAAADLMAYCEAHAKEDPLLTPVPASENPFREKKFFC

C3a: anaphylatoxin C3a, natural peptide ligand of C3aR (a 77-amino acid peptide), Sigma-Aldrich
cAMP response (% Forskolin) ([1]; I102A/I421A, Log[C3a (M)] -7): 60.33 % Forskolin and 51.98 % Forskolin and 58.06 % Forskolin | cAMP response (% Forskolin) ([1]; I102A/I421A, Log[C3a (M)] -8): 94.58 % Forskolin and 89.45 % Forskolin and 91.46 % Forskolin | cAMP response (% Forskolin) ([1]; I102A/I421A, Log[C3a (M)] -9): 96.12 % Forskolin and 94.02 % Forskolin and 96.29 % Forskolin | cAMP response (% Forskolin) ([1]; I102A/I421A, Log[C3a (M)] -10): 100.40 % Forskolin and 98.48 % Forskolin and 97.75 % Forskolin | cAMP response (% Forskolin) ([1]; I102A/I421A, Log[C3a (M)] -11): 101.76 % Forskolin and 98.75 % Forskolin and 98.69 % Forskolin | cAMP response (% Forskolin) ([1]; I102A/I421A, Log[C3a (M)] -12): 99.03 % Forskolin and 95.31 % Forskolin and 95.64 % Forskolin | ΔpIC50 ± SE of Diff. ([1]; I102^3.32A/I421^7.39A relative to WT C3aR): -0.51 ± 0.05 | IC50 ([1]; I102^3.32A/I421^7.39A, dose-response plot, read-out: IC50): 10.1 nM | pIC50 (Replicate) ([1]; I102^3.32A/I421^7.39A, individual replicates): 8.09 and 7.94 and 7.95 | pIC50 ± SEM (Mean) ([1]; I102^3.32A/I421^7.39A, mean of independent experiments): 7.99 | cAMP response (% Forskolin) ([1]; I1023.32A/I4217.39A, Log[C3a (M)] -7): 17.14 % Forskolin and 17.92 % Forskolin and 21.78 % Forskolin | cAMP response (% Forskolin) ([1]; I1023.32A/I4217.39A, Log[C3a (M)] -8): 50.03 % Forskolin and 58.06 % Forskolin and 57.92 % Forskolin | cAMP response (% Forskolin) ([1]; I1023.32A/I4217.39A, Log[C3a (M)] -9): 101.91 % Forskolin and 104.37 % Forskolin and 102.64 % Forskolin | cAMP response (% Forskolin) ([1]; I1023.32A/I4217.39A, Log[C3a (M)] -10): 108.19 % Forskolin and 105.12 % Forskolin and 103.38 % Forskolin | cAMP response (% Forskolin) ([1]; I1023.32A/I4217.39A, Log[C3a (M)] -11): 107.31 % Forskolin and 106.77 % Forskolin and 101.12 % Forskolin | cAMP response (% Forskolin) ([1]; I1023.32A/I4217.39A, Log[C3a (M)] -12): 98.25 % Forskolin and 100.53 % Forskolin and 100.03 % Forskolin | Mean Diff. of pIC50, WT vs. H81A (C3aR H81^2.63A; [2]): 0.390 | ΔpIC50 ± SE of Diff. (C3aR H81^2.63A; H81^2.63A relative to WT C3aR): -0.39 ± 0.05 | IC50 (C3aR H81^2.63A; H81^2.63A, dose-response plot, read-out: IC50): 7.45 nM | pIC50 (Replicate) (C3aR H81^2.63A; H81^2.63A, individual replicates): 8.23 and 8.03 and 8.24 and 8.26 and 7.82 and 8.16 and 8.00 | pIC50 ± SEM (Mean) (C3aR H81^2.63A; H81^2.63A, mean of independent experiments): 8.11 | cAMP response (% Forskolin) (C3aR H81^2.63A; Log[C3a (M)] -7): 16.97 % Forskolin and 18.16 % Forskolin and 16.81 % Forskolin and 12.45 % Forskolin and 16.49 % Forskolin and 12.75 % Forskolin and 10.89 % Forskolin | cAMP response (% Forskolin) (C3aR H81^2.63A; Log[C3a (M)] -8): 37.38 % Forskolin and 51.57 % Forskolin and 36.98 % Forskolin and 30.38 % Forskolin and 58.58 % Forskolin and 40.19 % Forskolin and 48.13 % Forskolin | cAMP response (% Forskolin) (C3aR H81^2.63A; Log[C3a (M)] -9): 95.75 % Forskolin and 95.02 % Forskolin and 98.54 % Forskolin and 105.34 % Forskolin and 92.35 % Forskolin and 92.22 % Forskolin and 94.48 % Forskolin | cAMP response (% Forskolin) (C3aR H81^2.63A; Log[C3a (M)] -10): 97.40 % Forskolin and 98.52 % Forskolin and 99.76 % Forskolin and 98.68 % Forskolin and 88.34 % Forskolin and 99.56 % Forskolin and 95.62 % Forskolin | cAMP response (% Forskolin) (C3aR H81^2.63A; Log[C3a (M)] -11): 96.99 % Forskolin and 98.64 % Forskolin and 99.98 % Forskolin and 102.79 % Forskolin and 93.58 % Forskolin and 91.17 % Forskolin and 97.12 % Forskolin | cAMP response (% Forskolin) (C3aR H81^2.63A; Log[C3a (M)] -12): 95.00 % Forskolin and 97.54 % Forskolin and 97.75 % Forskolin and 103.25 % Forskolin and 100.37 % Forskolin and 97.05 % Forskolin and 96.06 % Forskolin | pEC50 Value (C3aR; Figure EV1A numerical data, curve fit): 8.52 | ΔBRET (ligand-vehicle) (C3aR; Log[ligand (M)] -7): 0.032 and 0.030 and 0.024 and 0.026 | ΔBRET (ligand-vehicle) (C3aR; Log[ligand (M)] -8): 0.029 and 0.025 and 0.020 and 0.022 | ΔBRET (ligand-vehicle) (C3aR; Log[ligand (M)] -9): 0.010 and 0.009 and 0.006 and 0.007 | ΔBRET (ligand-vehicle) (C3aR; Log[ligand (M)] -10): 0.00235 and 0.00134 and 0.00248 and 0.003 | ΔBRET (ligand-vehicle) (C3aR; Log[ligand (M)] -11): 0.000317 and 0.00116 and 0.00278 and 0.00544 | ΔBRET (ligand-vehicle) (C3aR; Log[ligand (M)] -12): 0.000368 and 0.000727 and 0.00354 and 0.006 | Span Value (C3aR; span of ΔBRET curve, Figure EV1A numerical data): 0.027 | Mean Diff. of pIC50, WT vs. L82A (C3aR L82^2.64A; [2]): -0.166 | ΔpIC50 ± SE of Diff. (C3aR L82^2.64A; L82^2.64A relative to WT C3aR): 0.17 ± 0.05 | IC50 (C3aR L82^2.64A; L82^2.64A, dose-response plot, read-out: IC50): 1.98 nM | pIC50 (Replicate) (C3aR L82^2.64A; L82^2.64A, individual replicates): 8.88 and 8.82 and 8.71 and 8.44 | pIC50 ± SEM (Mean) (C3aR L82^2.64A; L82^2.64A, mean of independent experiments): 8.71 ± 0.10 and 8.71 | cAMP response (% Forskolin) (C3aR L82^2.64A; Log[C3a (M)] -7): 6.88 % Forskolin and 9.71 % Forskolin and 10.14 % Forskolin and 11.39 % Forskolin | cAMP response (% Forskolin) (C3aR L82^2.64A; Log[C3a (M)] -8): 8.74 % Forskolin and 11.60 % Forskolin and 12.67 % Forskolin and 19.68 % Forskolin | cAMP response (% Forskolin) (C3aR L82^2.64A; Log[C3a (M)] -9): 57.84 % Forskolin and 63.09 % Forskolin and 70.46 % Forskolin and 87.20 % Forskolin | cAMP response (% Forskolin) (C3aR L82^2.64A; Log[C3a (M)] -10): 90.69 % Forskolin and 88.60 % Forskolin and 91.27 % Forskolin and 91.83 % Forskolin | cAMP response (% Forskolin) (C3aR L82^2.64A; Log[C3a (M)] -11): 96.32 % Forskolin and 92.63 % Forskolin and 98.10 % Forskolin and 96.40 % Forskolin | cAMP response (% Forskolin) (C3aR L82^2.64A; Log[C3a (M)] -12): 96.44 % Forskolin and 101.07 % Forskolin and 97.65 % Forskolin and 97.10 % Forskolin
